Reference: patent US7662400

What was measured:
[1] = tested on: T1, fluorescent quenched PAR-2 peptide substrate Abz-SKGRSLIGK(Dnp)D
T1 sequence: SKGRSLIGK

[2] = target: protease-activated receptor 2 (PAR-2) on human eosinophils / BEAS-2B airway epithelial cells (UniProt P55085)
Sequence of protease-activated receptor 2 (PAR-2) on human eosinophils / BEAS-2B airway epithelial cells (P55085 whole entry, looked up): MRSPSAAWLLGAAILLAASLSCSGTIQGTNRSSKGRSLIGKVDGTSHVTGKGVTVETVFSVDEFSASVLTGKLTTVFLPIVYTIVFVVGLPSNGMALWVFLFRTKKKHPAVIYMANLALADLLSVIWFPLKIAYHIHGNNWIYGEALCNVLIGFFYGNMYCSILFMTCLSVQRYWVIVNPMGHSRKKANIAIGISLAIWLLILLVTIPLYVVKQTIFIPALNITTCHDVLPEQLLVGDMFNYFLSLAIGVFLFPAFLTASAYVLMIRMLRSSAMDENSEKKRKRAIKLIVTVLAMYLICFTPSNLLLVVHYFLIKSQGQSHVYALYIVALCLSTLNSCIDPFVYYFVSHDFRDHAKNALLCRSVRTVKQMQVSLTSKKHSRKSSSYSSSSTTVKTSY

Substance	in vitro assay for PAR-2 cleavage and activation (fluorescent quenched peptide substrate) [1]	deglycosylation and downregulation of PAR-2 in eosinophils (Western blot) [2]
trypsin	trypsin, as positive control, clearly cleaved this peptide	
Aspergillus xylanase		The 41 kDa and 70 kDa PAR-2 molecules were deglycosylated by xylanase temporarily
